# Assay results as given in patent US20260167728A1 (published 2026).
# Molecular target: T1, huCD3e-mFc (human, UniProt P07766 23-126)
# T1 construct: not shown: mFc, not described
# Experiment: Pool 3 screen
# T1 sequence (P07766 23-126): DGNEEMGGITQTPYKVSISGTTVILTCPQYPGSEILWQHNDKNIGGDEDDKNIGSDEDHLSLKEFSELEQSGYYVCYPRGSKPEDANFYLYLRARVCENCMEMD
row,Binder,Kd [nM]
1,"AC3804 (CD3.300) (scFv, V domains shown, Pool 3 format (remarks)) VH: EVQLVESGGGIVQPGGSLRLSCAASGFTFSTYAMNWVRQAPGKGLEWVGRIRTKRNNYATYYADSVKGRFTISRDDSKNTVYLQMNSLKTEDTAVYYCVRHENFGNSYVSWFAHWGQGTLVTVSS VL: ELVVTQEPSLTVSPGGTVTLTCRSSNGAVTSSNYANWVQQKPGQAPRGLIGGTNKRAPGTPARFSGSLLEGKAALTLSGVQPEDEAVYYCALWYPNLWVFGGGTKLTVL",36.6
2,"AC3806 (CD3.302) (scFv, V domains shown, Pool 3 format (remarks)) VH: EVQLVESGGGIVQPGGSLRLSCAASGFTFSTYAMNWVRQAPGKGLEWVGRIRTKRNDYATYYADSVKGRFTISRDDSKNTAYLQMNSLKTEDTAVYYCVRHENFGNSYVSWFAHWGQGTLVTVSS VL: ELVVTQEPSLTVSPGGTVTLTCRSSNGAVTSSNYANWVQQKPGQAPRGLIGGTNKRAPGTPARFSGSALGGKAALTLSGVQPEDEAVYYCALWYPNLWVFGGGTKLTVL",5.09
3,"AC3807 (CD3.303) (scFv, V domains shown, Pool 3 format (remarks)) VH: EVQLVESGGGIVQPGGSLRLSCAASGFTFSTYAMNWVRQAPGKGLEWVGRIRTKRNDYATYYADSVKGRFTISRDDSKNTAYLQMNSLKTEDTAVYYCVRHENFGNSYVSWFAHWGQGTLVTVSS VL: ELVVTQEPSLTVSPGGTVTLTCRSSNGAVTSSNYANWVQQKPGQAPRGLIGGTNKRAPGTPARFSGSGLGGKAALTLSGVQPEDEAVYYCALWYPNLWVFGGGTKLTVL",6.08
4,"AC3808 (CD3.304) (scFv, V domains shown, Pool 3 format (remarks)) VH: EVQLVESGGGIVQPGGSLRLSCAASGFTFSTYAMNWVRQAPGKGLEWVGRIRTKRNDYATYYADSVKGRFTISRDDSKNTAYLQMNSLKTEDTAVYYCVRHENFGNSYVSWFAHWGQGTLVTVSS VL: ELVVTQEPSLTVSPGGTVTLTCRSSNGAVTSSNYANWVQQKPGQAPRGLIGGTNKRAPGTPARFSGSLNGGKAALTLSGVQPEDEAVYYCALWYPNLWVFGGGTKLTVL",4.31
5,"AC3810 (CD3.306) (scFv, V domains shown, Pool 3 format (remarks)) VH: EVQLVESGGGIVQPGGSLRLSCAASGFTFSTYAMNWVRQAPGKGLEWVGRIRTKRNDYATYYADSVKGRFTISRDDSKNTAYLQMNSLKTEDTAVYYCVRHENFGNSYVSWFAHWGQGTLVTVSS VL: ELVVTQEPSLTVSPGGTVTLTCRSSNGAVTSSNYANWVQQKPGQAPRGLIGGTNKRAPGTPARFSGSLGGGKAALTLSGVQPEDEAVYYCALWYPNLWVFGGGTKLTVL",5.09
6,"AC3812 (CD3.308) (scFv, V domains shown, Pool 3 format (remarks)) VH: EVQLVESGGGIVQPGGSLRLSCAASGFTFSTYAMNWVRQAPGKGLEWVGRIRTKRNDYATYYADSVKGRFTISRDDSKNTAYLQMNSLKTEDTAVYYCVRHENFGNSYVSWFAHWGQGTLVTVSS VL: ELVVTQEPSLTVSPGGTVTLTCRSSNGAVTSSNYANWVQQKPGQAPRGLIGGTNKRAPGTPARFSGSLLGGKAGLTLSGVQPEDEAVYYCALWYPNLWVFGGGTKLTVL",5.56
7,"AC3814 (CD3.310) (scFv, V domains shown, Pool 3 format (remarks)) VH: EVQLVESGGGIVQPGGSLRLSCAASGFTFSTYAMNWVRQAPGKGLEWVGRIRTKRNDYATYYADSVKGRFTISRDDSKNTLYLQMNSLKTEDTAVYYCVRHENFGNSYVSWFAHWGQGTLVTVSS VL: ELVVTQEPSLTVSPGGTVTLTCRSSNGAVTSSNYANWVQQKPGQAPRGLIGGTNKRAPGTPARFSGSLLGGKAALTLSGVQPEDEAVYYCALWYPNLWVFGGGTKLTVL",4.1
8,"AC3815 (CD3.311) (scFv, V domains shown, Pool 3 format (remarks)) VH: EVQLVESGGGIVQPGGSLRLSCAASGFTFSTYAMNWVRQAPGKGLEWVGRIRTKRNDYATYYADSVKGRFTISRDDSKNTLYLQMNSLKTEDTAVYYCVRHENFGNSYVSWFAHWGQGTLVTVSS VL: ELVVTQEPSLTVSPGGTVTLTCRSSNGAVTSSNYANWVQQKPGQAPRGLIGGTNKRAPGTPARFSGSALGGKAALTLSGVQPEDEAVYYCALWYPNLWVFGGGTKLTVL",4.53
9,"AC3816 (CD3.312) (scFv, V domains shown, Pool 3 format (remarks)) VH: EVQLVESGGGIVQPGGSLRLSCAASGFTFSTYAMNWVRQAPGKGLEWVGRIRTKRNDYATYYADSVKGRFTISRDDSKNTLYLQMNSLKTEDTAVYYCVRHENFGNSYVSWFAHWGQGTLVTVSS VL: ELVVTQEPSLTVSPGGTVTLTCRSSNGAVTSSNYANWVQQKPGQAPRGLIGGTNKRAPGTPARFSGSGLGGKAALTLSGVQPEDEAVYYCALWYPNLWVFGGGTKLTVL",4.12
10,"AC3817 (CD3.313) (scFv, V domains shown, Pool 3 format (remarks)) VH: EVQLVESGGGIVQPGGSLRLSCAASGFTFSTYAMNWVRQAPGKGLEWVGRIRTKRNDYATYYADSVKGRFTISRDDSKNTLYLQMNSLKTEDTAVYYCVRHENFGNSYVSWFAHWGQGTLVTVSS VL: ELVVTQEPSLTVSPGGTVTLTCRSSNGAVTSSNYANWVQQKPGQAPRGLIGGTNKRAPGTPARFSGSLNGGKAALTLSGVQPEDEAVYYCALWYPNLWVFGGGTKLTVL",3.86
11,"AC3818 (CD3.314) (scFv, V domains shown, Pool 3 format (remarks)) VH: EVQLVESGGGIVQPGGSLRLSCAASGFTFSTYAMNWVRQAPGKGLEWVGRIRTKRNDYATYYADSVKGRFTISRDDSKNTLYLQMNSLKTEDTAVYYCVRHENFGNSYVSWFAHWGQGTLVTVSS VL: ELVVTQEPSLTVSPGGTVTLTCRSSNGAVTSSNYANWVQQKPGQAPRGLIGGTNKRAPGTPARFSGSLEGGKAALTLSGVQPEDEAVYYCALWYPNLWVFGGGTKLTVL",4.02
12,"AC3819 (CD3.315) (scFv, V domains shown, Pool 3 format (remarks)) VH: EVQLVESGGGIVQPGGSLRLSCAASGFTFSTYAMNWVRQAPGKGLEWVGRIRTKRNDYATYYADSVKGRFTISRDDSKNTLYLQMNSLKTEDTAVYYCVRHENFGNSYVSWFAHWGQGTLVTVSS VL: ELVVTQEPSLTVSPGGTVTLTCRSSNGAVTSSNYANWVQQKPGQAPRGLIGGTNKRAPGTPARFSGSLGGGKAALTLSGVQPEDEAVYYCALWYPNLWVFGGGTKLTVL",3.4
13,"AC3820 (CD3.316) (scFv, V domains shown, Pool 3 format (remarks)) VH: EVQLVESGGGIVQPGGSLRLSCAASGFTFSTYAMNWVRQAPGKGLEWVGRIRTKRNDYATYYADSVKGRFTISRDDSKNTLYLQMNSLKTEDTAVYYCVRHENFGNSYVSWFAHWGQGTLVTVSS VL: ELVVTQEPSLTVSPGGTVTLTCRSSNGAVTSSNYANWVQQKPGQAPRGLIGGTNKRAPGTPARFSGSLDGGKAALTLSGVQPEDEAVYYCALWYPNLWVFGGGTKLTVL",3.99
14,"AC3821 (CD3.317) (scFv, V domains shown, Pool 3 format (remarks)) VH: EVQLVESGGGIVQPGGSLRLSCAASGFTFSTYAMNWVRQAPGKGLEWVGRIRTKRNDYATYYADSVKGRFTISRDDSKNTLYLQMNSLKTEDTAVYYCVRHENFGNSYVSWFAHWGQGTLVTVSS VL: ELVVTQEPSLTVSPGGTVTLTCRSSNGAVTSSNYANWVQQKPGQAPRGLIGGTNKRAPGTPARFSGSLLGGKAGLTLSGVQPEDEAVYYCALWYPNLWVFGGGTKLTVL",4.1
15,"AC3824 (CD3.320) (scFv, V domains shown, Pool 3 format (remarks)) VH: EVQLVESGGGIVQPGGSLRLSCAASGFTFNTYAMNWVRQAPGKGLEWVGRIRTKTNNYATYYADSVKGRFTISRDDSKNTVYLQMNSLKTEDTAVYYCVRHENFGNSYVSWFAHWGQGTLVTVSS VL: ELVVTQEPSLTVSPGGTVTLTCRSSNGAVTSSNYANWVQQKPGQAPRGLIGGTNKRAPGTPARFSGSALGGKAALTLSGVQPEDEAVYYCALWYPNLWVFGGGTKLTVL",10.9
16,"AC3825 (CD3.321) (scFv, V domains shown, Pool 3 format (remarks)) VH: EVQLVESGGGIVQPGGSLRLSCAASGFTFNTYAMNWVRQAPGKGLEWVGRIRTKTNNYATYYADSVKGRFTISRDDSKNTVYLQMNSLKTEDTAVYYCVRHENFGNSYVSWFAHWGQGTLVTVSS VL: ELVVTQEPSLTVSPGGTVTLTCRSSNGAVTSSNYANWVQQKPGQAPRGLIGGTNKRAPGTPARFSGSGLGGKAALTLSGVQPEDEAVYYCALWYPNLWVFGGGTKLTVL",10
17,"AC3826 (CD3.322) (scFv, V domains shown, Pool 3 format (remarks)) VH: EVQLVESGGGIVQPGGSLRLSCAASGFTFNTYAMNWVRQAPGKGLEWVGRIRTKTNNYATYYADSVKGRFTISRDDSKNTVYLQMNSLKTEDTAVYYCVRHENFGNSYVSWFAHWGQGTLVTVSS VL: ELVVTQEPSLTVSPGGTVTLTCRSSNGAVTSSNYANWVQQKPGQAPRGLIGGTNKRAPGTPARFSGSLNGGKAALTLSGVQPEDEAVYYCALWYPNLWVFGGGTKLTVL",7
18,"AC3828 (CD3.324) (scFv, V domains shown, Pool 3 format (remarks)) VH: EVQLVESGGGIVQPGGSLRLSCAASGFTFNTYAMNWVRQAPGKGLEWVGRIRTKTNNYATYYADSVKGRFTISRDDSKNTVYLQMNSLKTEDTAVYYCVRHENFGNSYVSWFAHWGQGTLVTVSS VL: ELVVTQEPSLTVSPGGTVTLTCRSSNGAVTSSNYANWVQQKPGQAPRGLIGGTNKRAPGTPARFSGSLGGGKAALTLSGVQPEDEAVYYCALWYPNLWVFGGGTKLTVL",7.21
19,"AC3829 (CD3.325) (scFv, V domains shown, Pool 3 format (remarks)) VH: EVQLVESGGGIVQPGGSLRLSCAASGFTFNTYAMNWVRQAPGKGLEWVGRIRTKTNNYATYYADSVKGRFTISRDDSKNTVYLQMNSLKTEDTAVYYCVRHENFGNSYVSWFAHWGQGTLVTVSS VL: ELVVTQEPSLTVSPGGTVTLTCRSSNGAVTSSNYANWVQQKPGQAPRGLIGGTNKRAPGTPARFSGSLDGGKAALTLSGVQPEDEAVYYCALWYPNLWVFGGGTKLTVL",10.1
20,"AC3830 (CD3.326) (scFv, V domains shown, Pool 3 format (remarks)) VH: EVQLVESGGGIVQPGGSLRLSCAASGFTFNTYAMNWVRQAPGKGLEWVGRIRTKTNNYATYYADSVKGRFTISRDDSKNTVYLQMNSLKTEDTAVYYCVRHENFGNSYVSWFAHWGQGTLVTVSS VL: ELVVTQEPSLTVSPGGTVTLTCRSSNGAVTSSNYANWVQQKPGQAPRGLIGGTNKRAPGTPARFSGSLLGGKAGLTLSGVQPEDEAVYYCALWYPNLWVFGGGTKLTVL",6.65
21,"AC3834 (CD3.330) (scFv, V domains shown, Pool 3 format (remarks)) VH: EVQLVESGGGIVQPGGSLRLSCAASGFTFNTYAMNWVRQAPGKGLEWVGRIRTKTNDYATYYADSVKGRFTISRDDSKNTAYLQMNSLKTEDTAVYYCVRHENFGNSYVSWFAHWGQGTLVTVSS VL: ELVVTQEPSLTVSPGGTVTLTCRSSNGAVTSSNYANWVQQKPGQAPRGLIGGTNKRAPGTPARFSGSGLGGKAALTLSGVQPEDEAVYYCALWYPNLWVFGGGTKLTVL",23.4
22,"AC3835 (CD3.331) (scFv, V domains shown, Pool 3 format (remarks)) VH: EVQLVESGGGIVQPGGSLRLSCAASGFTFNTYAMNWVRQAPGKGLEWVGRIRTKTNDYATYYADSVKGRFTISRDDSKNTAYLQMNSLKTEDTAVYYCVRHENFGNSYVSWFAHWGQGTLVTVSS VL: ELVVTQEPSLTVSPGGTVTLTCRSSNGAVTSSNYANWVQQKPGQAPRGLIGGTNKRAPGTPARFSGSLNGGKAALTLSGVQPEDEAVYYCALWYPNLWVFGGGTKLTVL",35.7
